# The RNAGym collection of RNA variant scans (doi:10.1073/pnas.2313332121)
# B1: TPR t1 (parent)
# chain: GACCAAUCUGCCCUCAGAGCUCGAGAACAUCUUCGGAUGCAGAGGAGGCAGGCUUCGGUGGCGCGAUAGCGCCAACGUCCUCAACCUCCAAUGCAUCCCACCACAUGAUGAUGCCUGAAGAGCCUUGGUUUUUUG
# Variants of: B1
# Assay: polymerase ribozyme fitness, log enrichment relative to wild type (log ratio); higher = more active; in vitro selection for triplet polymerase activity
# How it was run: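 Fitness compares each genotype's enrichment to that of the wild type on a logarithmic scale, averaging replicates with inverse-variance weights. The logarithm is base 2. Enrichment came from Illumina sequencing of input and output libraries after one triplicate round of in vitro selection, which included frozen incubation at −7 °C, of PCR-built, transcribed mutant libraries of each subunit of a heterodimeric triplet polymerase ribozyme. Only genotypes with ≥10 input reads and ≥1 read per output were kept.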
row,Variant,polymerase ribozyme fitness (log ratio)
1,G42C G71U A84U,-3.18
2,G42U C53U C82U G93A C99A G107U C114G C123G U125A G127A,-4.42
3,G42A C72G,-2.43
4,G42A C72A,-1.98
5,G42U A46U,-1.99
6,A43C G61U C64G A121G,-6.23
7,G42C C89U C101G,-2.74
8,G42A A83C U112A,-1.42
9,G42U C88U G113U A121U U131G,-1.8
10,G42C C102A,-4.06
11,G42U C76U A84U C88U,-2.62
12,G42A G44A A50C C115A,-4.02
13,G42A A66G C70U C89A U132A,-5.56
14,G42U G52A C101U,-1.81
15,G42U U96C,-1.58
16,G42C C49G C56U,-2.41
17,A43C A46C G60A U87A C101U,-2.45
18,G42A G117C A119U,-3.55
19,G42A C70U U81A G93U,-6.73
20,A43C G60U U133G,-2
21,G42C G71U G117C,-4.87
22,G42A G48U,-2.42
23,G42C G47U A108C G110A U112A,-7.49
24,G42C C88G C114G,-4.43

row,Variant,polymerase ribozyme fitness (log ratio)
1,G42C C70G,-5.52
2,G42C C53G,-1.2
3,A43C C72U A103U U125A,-6.47
4,A43C G61U C82U C104G C123A,-7.32
5,G42C G47U G52C C114A A118G,-6.7
6,G42U G47U,-1.51
7,G42U G47C,-5.66
8,A43C,-2.17
9,G42A U116A,-3.72
10,G42A U126G,-3.7
11,G42A C82A A91C C115G,-4.43
12,G42A G61U A83U,-2.11
13,G42U C94U G113A,-2.64
14,G42C A103G C114G G122U,-6.92
15,G42C G113C,-2.1
16,A43C C49U,-3.72
17,A43C C49A,-3.08
18,A43C C49G,-3.17
19,G42U G71A C86U U96A C97A U116G,-6.66
20,A43C A46C U96A U106A U116G C123A,-7.89
21,G42A C70A,-4.1
22,A43C A68G U109A G117U,-6.95
23,G42A C73A C89G,-2.01
24,A43C G47U U112A G135A,-1.87

row,Variant,polymerase ribozyme fitness (log ratio)
1,G42U U55A C56G G77C C115A,-1.05
2,G42C C79U C82G C85G G110C,-5.74
3,G42A A103U U112A,-7.34
4,A43C G120U,-2.7
5,A43C G69A C94G,-7.62
6,A43C G58A U78A C114A,-5.29
7,G42U A46U C62U,-2.07
8,G42U G45A G63C,-1.98
9,G42C G44A G69C C94U C114A,-5.06
10,A43C G52A,-2.92
11,A43C G47U C53U C88G C104U,-6.05
12,A43C G71U U112C G135A,-1.05
13,G42U C49A G69U,0.552
14,G42A C64U,-2.45
15,A43C C70G A111U,-5.68
16,G42A G58A,-1.77
17,G42C U55A G71C G113U G120U C123U U125A,-5.08
18,G42A C53U C88A C114A G127U,-5.52
19,A43C G93C U130A,-3.38
20,G42C C89U C102A,-5.66
21,A43C G61U C85U,-2.37
22,G42U U92A,-2.25
23,G42U A50C A83G C97G C99U U106A G113U C124A,-7.66
24,G42U A68U C123G U130A,-5.54

row,Variant,polymerase ribozyme fitness (log ratio)
1,G42A G48A G69C,-4.05
2,G42A C62U A83C U112A,-2.06
3,G42U U78A U81A U112A,-3.13
4,A43C C85A C104U G113A,-2.96
5,G42C G63C C73A,-3.92
6,G42U U78A,-2.36
7,G42C G52U G60C,-2.14
8,G42U G60A U87A G113A,-3.78
9,G42C A50C,-2.31
10,G42C A50U,-3.32
11,G42C A91G G113U,-3.17
12,G42C G71A C72A C115U,-5.81
13,G42C C115U,-2.24
14,G42A G60U,-2.08
15,G42A C73G C79A U130A,-5.42
16,G42A U55G,-1.85
17,A43C C62U C72G,-4.05
18,G42A C98U,-2.55
19,G42A G61C,-3.18
20,G42A G61A,-1.27
21,G42U C56U G127U,-2.75
22,G42A C49U U112C,-0.387
23,G42A C88A G110A,-4.27
24,A43C C53U G110C,-7.24

row,Variant,polymerase ribozyme fitness (log ratio)
1,G42C G57U U126G,-3.49
2,G42U G77C C80U A84U C97U,-3.47
3,G42U C82A,-1.61
4,G42U C82U,-1.44
5,G42U G60A G128C,-3.97
6,G42A U106A G120U U132A,-2.41
7,G42U U81C C85G U126G,-6.41
8,G42U C115U,-1.27
9,G42U C115G,-1.8
10,G42U U92A A118U,-2.03
11,G42A G117C,-3.8
12,G42A C72G G93U,-3.39
13,A43C G63C C102A A121U C123U,-5.76
14,G42U G77U U92A U106A,-2.9
15,G42C C124A,-0.168
16,G42A A118U,-1.15
17,G42C U78A C85U C123G G135U,-2.89
18,G42C G44C,-0.912
19,G42U G44A C70A G127U,-4.25
20,A43C C53A C56A C72A,-2.36
21,A43C G117C,-4.86
22,G42A G113U,-3
23,G42C U96G C124U,-0.43
24,G42U C56G C73A,-4.4

row,Variant,polymerase ribozyme fitness (log ratio)
1,A43C G63A U78C C88A A91G C94U U130C,-4.78
2,G42A U54C,-1.78
3,G42A A91G,-2.47
4,G42U C94G U96C,-4.23
5,G42A C89U G117A,-3.19
6,G42C C49A G93C,-3.52
7,A43C C73A U81G C86U,-6.91
8,G42U A75G G93C,-2.29
9,A43C C86U,-2.14
10,G42U G60A C101U A121G,0.281
11,G42A U130C U133A,-1.86
12,G42A G63C,-2.96
13,G42C G117A,-2.18
14,G42U C56A C64U,-2.46
15,G42A G47C C82U A84G,-3.91
16,G42C G45U U133A,-2.53
17,G42C C49A C56U U96A,-3.16
18,G42U U59C U87A A100U,-4.01
19,G42C G48C C79A,-6.14
20,G42U C49U,-2.98
21,A43C C85G A90G C98A,-7.04
22,G42U G77A C88A U92C,-3.21
23,A43C G48C C123A,-1.93
24,A43C A50C C86U C89A,-4.9

row,Variant,polymerase ribozyme fitness (log ratio)
1,G42U A91C G117C,-3.63
2,G42A U81C U129G,-4.71
3,G42U G52A C72U U78A G128U,-4.36
4,A43C C85G,-3.37
5,A43C G45U C73A A91U G93A U112A G128C,-5.37
6,G42U A50C U92C,-2.73
7,G42C A84U,-1.87
8,G42A A46U G48A A66C A118U,-5.21
9,G42A C70U G117A,-4.31
10,G42U A43C C104U,-0.998
11,G42U A68C G107C C114U G128C U133G,-6.38
12,G42U A83C G127U,-2.25
13,G42U G69C,-2.39
14,G42U G69U,-0.0944
15,A43C C115G,-3.94
16,G42U G113U,-3.06
17,G42U G113C,-3.23
18,A43C C56A,-2.98
19,G42C G44U U112A,-1.44
20,G42A G63C C94G U130G,-4.71
21,A43C C76U A91C G93C U112C G113U U116C,-6.51
22,G42A A90C U96A G117U,-5.05
23,G42C G122A,-2.41
